Results: the supplement of paper PMC9112550, “Optimization of the antimicrobial peptide Bac7 by deep mutational scanning” (BMC Biology, 2022)

Tested on: Escherichia coli TOP10
Experiment: shrunken log2 fold change of peptide-encoding DNA abundance (4.5 h post-induction vs induction); higher = less antimicrobial activity (less host growth inhibition)
Conditions: time post-induction: 4.5 h; library: site-saturation at positions 5, 18, 19, 20
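Also: peptides expressed intracellularly from a pBAD plasmid library in pooled LB shake-flask culture, induced with 0.3% L-arabinose, DNA abundance read by NGS, three biological replicates, DESeq2 with apeglm shrinkage.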

Sequence	shrunken log2 fold change
RRIRTRPPRLPRPRPRPCNRPRP	-0.144
RRIRTRPPRLPRPRPRPCPCPRP	-0.366
RRIRTRPPRLPRPRPRPCQYPRP	-0.293
RRIRTRPPRLPRPRPRPCRIPRP	-0.0965
RRIRTRPPRLPRPRPRPCTWPRP	-0.0134
RRIRTRPPRLPRPRPRPCVKPRP	0.0506
RRIRTRPPRLPRPRPRPCVYPRP	-0.243
RRIRTRPPRLPRPRPRPCWFPRP	-0.21
RRIRTRPPRLPRPRPRPCWVPRP	-0.42
RRIRTRPPRLPRPRPRPCWYPRP	4
RRIRTRPPRLPRPRPRPDAHPRP	0.128
RRIRTRPPRLPRPRPRPDAYPRP	-0.134
RRIRTRPPRLPRPRPRPDDKPRP	-0.294
RRIRTRPPRLPRPRPRPDDWPRP	0.276
RRIRTRPPRLPRPRPRPDEMPRP	-0.023
RRIRTRPPRLPRPRPRPDFEPRP	0.0498
RRIRTRPPRLPRPRPRPDFTPRP	-0.0888
RRIRTRPPRLPRPRPRPDGQPRP	0.0697
RRIRTRPPRLPRPRPRPDIAPRP	-0.0105
RRIRTRPPRLPRPRPRPDKTPRP	-0.108
RRIRTRPPRLPRPRPRPDKVPRP	-0.0275
RRIRTRPPRLPRPRPRPDMCPRP	-0.0287
RRIRTRPPRLPRPRPRPDMSPRP	-0.0305
RRIRTRPPRLPRPRPRPDNDPRP	0.0177
RRIRTRPPRLPRPRPRPDNFPRP	-0.231

Sequence	shrunken log2 fold change
RRIRTRPPRLPRPRPRPDNGPRP	-0.225
RRIRTRPPRLPRPRPRPDPYPRP	0.001
RRIRTRPPRLPRPRPRPDQAPRP	-0.0986
RRIRTRPPRLPRPRPRPDQYPRP	-0.0122
RRIRTRPPRLPRPRPRPDRIPRP	0.00097
RRIRTRPPRLPRPRPRPDRMPRP	-0.0127
RRIRTRPPRLPRPRPRPDSAPRP	0.0773
RRIRTRPPRLPRPRPRPDTQPRP	0.0514
RRIRTRPPRLPRPRPRPDVNPRP	0.21
RRIRTRPPRLPRPRPRPDWKPRP	-0.0156
RRIRTRPPRLPRPRPRPDWMPRP	0.0121
RRIRTRPPRLPRPRPRPDWPPRP	0.135
RRIRTRPPRLPRPRPRPDYTPRP	-0.606
RRIRTRPPRLPRPRPRPDYWPRP	-0.149
RRIRTRPPRLPRPRPRPEAQPRP	0.00719
RRIRTRPPRLPRPRPRPEDKPRP	-0.0305
RRIRTRPPRLPRPRPRPEDNPRP	0.168
RRIRTRPPRLPRPRPRPEDWPRP	0.386
RRIRTRPPRLPRPRPRPEEPPRP	0.0165
RRIRTRPPRLPRPRPRPEFMPRP	0.0647
RRIRTRPPRLPRPRPRPEFQPRP	-0.161
RRIRTRPPRLPRPRPRPEGQPRP	0.0344
RRIRTRPPRLPRPRPRPEHAPRP	-0.108
RRIRTRPPRLPRPRPRPEHHPRP	-0.203
RRIRTRPPRLPRPRPRPEIMPRP	-0.468

Sequence	shrunken log2 fold change
RRIRTRPPRLPRPRPRPEIVPRP	0.00632
RRIRTRPPRLPRPRPRPEMWPRP	0.0446
RRIRTRPPRLPRPRPRPENAPRP	-0.49
RRIRTRPPRLPRPRPRPENFPRP	-0.0131
RRIRTRPPRLPRPRPRPENRPRP	-0.0266
RRIRTRPPRLPRPRPRPENYPRP	-0.00973
RRIRTRPPRLPRPRPRPEQFPRP	-0.0905
RRIRTRPPRLPRPRPRPERNPRP	-0.201
RRIRTRPPRLPRPRPRPERVPRP	0.296
RRIRTRPPRLPRPRPRPESIPRP	-0.114
RRIRTRPPRLPRPRPRPESYPRP	-0.0242
RRIRTRPPRLPRPRPRPETNPRP	0.402
RRIRTRPPRLPRPRPRPETTPRP	0.285
RRIRTRPPRLPRPRPRPEVWPRP	0.546
RRIRTRPPRLPRPRPRPEYHPRP	-0.00732
RRIRTRPPRLPRPRPRPEYMPRP	-0.263
RRIRTRPPRLPRPRPRPFAIPRP	0.061
RRIRTRPPRLPRPRPRPFANPRP	-0.116
RRIRTRPPRLPRPRPRPFCCPRP	-0.309
RRIRTRPPRLPRPRPRPFCGPRP	-0.0697
RRIRTRPPRLPRPRPRPFCIPRP	-0.361
RRIRTRPPRLPRPRPRPFDHPRP	-0.301
RRIRTRPPRLPRPRPRPFDPPRP	-0.112
RRIRTRPPRLPRPRPRPFEKPRP	-0.0979
RRIRTRPPRLPRPRPRPFELPRP	-0.0363

Sequence	shrunken log2 fold change
RRIRTRPPRLPRPRPRPFFHPRP	-0.158
RRIRTRPPRLPRPRPRPFFQPRP	0.0474
RRIRTRPPRLPRPRPRPFFTPRP	-0.118
RRIRTRPPRLPRPRPRPFGCPRP	-0.0582
RRIRTRPPRLPRPRPRPFHNPRP	-0.31
RRIRTRPPRLPRPRPRPFIDPRP	-1.15
RRIRTRPPRLPRPRPRPFKAPRP	0.0168
RRIRTRPPRLPRPRPRPFKPPRP	-0.0194
RRIRTRPPRLPRPRPRPFLAPRP	-0.0751
RRIRTRPPRLPRPRPRPFLEPRP	-0.417
RRIRTRPPRLPRPRPRPFLHPRP	-0.524
RRIRTRPPRLPRPRPRPFLTPRP	0.153
RRIRTRPPRLPRPRPRPFPRPRP	0.0242
RRIRTRPPRLPRPRPRPFQVPRP	-0.0305
RRIRTRPPRLPRPRPRPFRHPRP	0.00803
RRIRTRPPRLPRPRPRPFTCPRP	0.0121
RRIRTRPPRLPRPRPRPFTMPRP	-0.348
RRIRTRPPRLPRPRPRPFTYPRP	-0.00136
RRIRTRPPRLPRPRPRPFVNPRP	-0.223
RRIRTRPPRLPRPRPRPFYHPRP	-0.486
RRIRTRPPRLPRPRPRPFYYPRP	-0.55
RRIRTRPPRLPRPRPRPGADPRP	0.301
RRIRTRPPRLPRPRPRPGDLPRP	-0.0395
RRIRTRPPRLPRPRPRPGGNPRP	-0.264
RRIRTRPPRLPRPRPRPGIPPRP	-0.394

Sequence	shrunken log2 fold change
RRIRTRPPRLPRPRPRPGKFPRP	-0.0892
RRIRTRPPRLPRPRPRPGKMPRP	0.181
RRIRTRPPRLPRPRPRPGKNPRP	-0.24
RRIRTRPPRLPRPRPRPGKSPRP	-0.402
RRIRTRPPRLPRPRPRPGLIPRP	-1.04
RRIRTRPPRLPRPRPRPGMNPRP	-0.15
RRIRTRPPRLPRPRPRPGNCPRP	0.0747
RRIRTRPPRLPRPRPRPGNDPRP	-0.219
RRIRTRPPRLPRPRPRPGNPPRP	-0.34
RRIRTRPPRLPRPRPRPGPFPRP	0.102
RRIRTRPPRLPRPRPRPGQVPRP	-0.0192
RRIRTRPPRLPRPRPRPGRMPRP	0.232
RRIRTRPPRLPRPRPRPGSTPRP	0.857
RRIRTRPPRLPRPRPRPGWRPRP	0.69
RRIRTRPPRLPRPRPRPGYGPRP	-0.139
RRIRTRPPRLPRPRPRPHAHPRP	-0.117
RRIRTRPPRLPRPRPRPHECPRP	-0.287
RRIRTRPPRLPRPRPRPHEGPRP	-0.00663
RRIRTRPPRLPRPRPRPHESPRP	-0.0124
RRIRTRPPRLPRPRPRPHEVPRP	-0.00804
RRIRTRPPRLPRPRPRPHEWPRP	0.00742
RRIRTRPPRLPRPRPRPHFPPRP	-0.199
RRIRTRPPRLPRPRPRPHFVPRP	-0.239
RRIRTRPPRLPRPRPRPHGDPRP	-0.146
RRIRTRPPRLPRPRPRPHGKPRP	-0.209

Sequence	shrunken log2 fold change
RRIRTRPPRLPRPRPRPHHAPRP	-0.00367
RRIRTRPPRLPRPRPRPHKEPRP	-0.0263
RRIRTRPPRLPRPRPRPHKRPRP	-0.0155
RRIRTRPPRLPRPRPRPHLNPRP	-0.358
RRIRTRPPRLPRPRPRPHLTPRP	0.101
RRIRTRPPRLPRPRPRPHLWPRP	0.0316
RRIRTRPPRLPRPRPRPHMHPRP	-0.543
RRIRTRPPRLPRPRPRPHNKPRP	-0.702
RRIRTRPPRLPRPRPRPHPWPRP	-0.0609
RRIRTRPPRLPRPRPRPHSKPRP	-0.2
RRIRTRPPRLPRPRPRPHSMPRP	-0.665
RRIRTRPPRLPRPRPRPHTMPRP	-0.406
RRIRTRPPRLPRPRPRPHWIPRP	-0.569
RRIRTRPPRLPRPRPRPHYHPRP	-0.853
RRIRTRPPRLPRPRPRPHYYPRP	-0.744
RRIRTRPPRLPRPRPRPIARPRP	-0.00992
RRIRTRPPRLPRPRPRPICKPRP	-0.0914
RRIRTRPPRLPRPRPRPICVPRP	-0.289
RRIRTRPPRLPRPRPRPIDTPRP	-0.157
RRIRTRPPRLPRPRPRPIGQPRP	-0.0623
RRIRTRPPRLPRPRPRPIHFPRP	-0.00174
RRIRTRPPRLPRPRPRPIIVPRP	-0.0629
RRIRTRPPRLPRPRPRPILFPRP	-0.209
RRIRTRPPRLPRPRPRPIMDPRP	-0.233
RRIRTRPPRLPRPRPRPIMQPRP	-0.201
